In patent US20210054076A1 (Chugai, published 2021):
Substitutions are numbered along the chain they refer to.

T1: mouse CLDN3 (mouse, UniProt Q9Z0G9 1-219)
T1 construct: whole, on cells; also called mCLDN3; BaF3_mCLDN3
T1 sequence (looked up): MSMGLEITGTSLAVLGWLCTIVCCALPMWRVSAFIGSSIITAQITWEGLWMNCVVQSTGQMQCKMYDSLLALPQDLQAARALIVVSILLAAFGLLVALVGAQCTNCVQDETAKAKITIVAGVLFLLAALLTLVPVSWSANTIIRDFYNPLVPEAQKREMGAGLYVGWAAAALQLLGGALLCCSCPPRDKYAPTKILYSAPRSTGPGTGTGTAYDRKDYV

T2: human CLDN3 (human, UniProt O15551 1-220)
T2 construct: whole, on cells; also called hCLDN3; BaF3_hCLDN3
T2 sequence (looked up): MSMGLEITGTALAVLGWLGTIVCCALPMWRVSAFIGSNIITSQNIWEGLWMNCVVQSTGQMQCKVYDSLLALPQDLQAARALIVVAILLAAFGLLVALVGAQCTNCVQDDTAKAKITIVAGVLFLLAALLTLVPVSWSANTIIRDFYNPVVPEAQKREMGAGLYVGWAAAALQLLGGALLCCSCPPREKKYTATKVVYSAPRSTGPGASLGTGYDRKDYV

T3: human CLDN9 (human, UniProt O95484 1-217)
T3 construct: whole, on cells; also called hCLDN9; BaF3_hCLDN9
T3 sequence (looked up): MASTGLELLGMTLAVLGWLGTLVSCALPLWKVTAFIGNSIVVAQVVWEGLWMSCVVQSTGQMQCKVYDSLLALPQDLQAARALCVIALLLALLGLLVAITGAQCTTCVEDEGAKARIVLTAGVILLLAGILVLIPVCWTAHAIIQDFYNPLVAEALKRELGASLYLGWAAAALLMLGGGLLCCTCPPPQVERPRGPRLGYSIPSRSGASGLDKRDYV

T4: human CLDN4 (human, UniProt O14493 1-209)
T4 construct: whole, on cells; also called hCLDN4; BaF3_hCLDN4
T4 sequence (looked up): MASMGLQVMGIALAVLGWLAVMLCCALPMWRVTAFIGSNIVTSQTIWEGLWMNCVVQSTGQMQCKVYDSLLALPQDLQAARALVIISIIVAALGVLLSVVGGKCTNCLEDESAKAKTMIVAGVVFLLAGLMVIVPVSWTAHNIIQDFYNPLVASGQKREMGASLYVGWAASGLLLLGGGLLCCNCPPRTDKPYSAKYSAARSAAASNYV

T5: mouse CLDN4 (mouse, UniProt O35054 1-210)
T5 construct: whole, on cells; also called mCLDN4; BaF3_mCLDN4
T5 sequence (looked up): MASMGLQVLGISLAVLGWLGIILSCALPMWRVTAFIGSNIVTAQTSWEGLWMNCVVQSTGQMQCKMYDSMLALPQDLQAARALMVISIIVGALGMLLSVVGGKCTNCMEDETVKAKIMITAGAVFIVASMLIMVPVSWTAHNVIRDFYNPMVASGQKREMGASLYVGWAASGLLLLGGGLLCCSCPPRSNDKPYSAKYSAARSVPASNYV

T6: mouse CLDN6 (mouse, UniProt Q9Z262 1-219)
T6 construct: whole, on cells; also called mCLDN6; BaF3_mCLDN6
T6 sequence (looked up): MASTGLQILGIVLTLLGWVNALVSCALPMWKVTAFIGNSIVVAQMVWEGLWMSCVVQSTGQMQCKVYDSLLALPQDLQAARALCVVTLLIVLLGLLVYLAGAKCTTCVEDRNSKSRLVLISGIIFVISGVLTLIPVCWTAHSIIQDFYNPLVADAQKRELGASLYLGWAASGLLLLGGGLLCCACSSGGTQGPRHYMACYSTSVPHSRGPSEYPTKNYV

T7: hCLDN6(Q156L) (human, UniProt P56747 1-220)
T7 construct: Stably expressed on Ba/F3 cells; also called human CLDN6 mutant; BaF3_hCLDN6(Q156L)
T7 chain: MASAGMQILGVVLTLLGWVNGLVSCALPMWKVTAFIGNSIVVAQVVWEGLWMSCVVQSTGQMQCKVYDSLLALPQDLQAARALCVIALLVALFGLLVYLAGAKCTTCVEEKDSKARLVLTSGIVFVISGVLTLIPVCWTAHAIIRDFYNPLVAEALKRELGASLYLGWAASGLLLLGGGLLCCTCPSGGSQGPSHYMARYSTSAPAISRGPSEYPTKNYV

T8: human CLDN6 (human, UniProt P56747 1-220)
T8 sequence: T7 chain with L156Q

B1: CH02/CD3 (bispecific antibody, human IgG1, kappa, N297A)
heavy 1: EVQVEQSGLELVKPGASVKISCKTSGYTFTEYTMHWVKQSHGKSLEWIGGINPNNGNTRYNQKFKDKATLTVDKSSRTAYMELHTLTSEDSAVYYCARCGDYDLFFFFAYWGQGTLVTVSAASTKGPSVFPLAPSSKSTSGGTAALGCLVKDYFPEPVTVSWNSGALTSGVHTFPAVLQSSGLYSLSSVVTVPSSSLGTQTYICNVNHKPSNTKVDKKVEPKSCDKTHTCPPCPAPELRGGPKVFLFPPKPKDTLMISRTPEVTCVVVDVSHEDPEVKFNWYVDGVEVHNAKTKPREEQYASTYRVVSVLTVLHQDWLNGKEYKCKVSNKALPAPIEKTISKAKGQPREPQVYTLPPSREEMTKNQVSLTCLVKGFYPSDIAVEWESNGQPENNYKTTPPYLDSDGSFFLYSKLTVDKSRWQQGNVFSCSVMHEALHNHYTQESLSLSP
light 1: DIVMTQFQKFMSTSVGDRVSVTCKASQNVGTNVAWYQQKPGQSPEALISSASSRFSGVPDRFTGSGSGTDFTLTITNVQSEDLADYFCQQYNSFPFTFGSGTELEIKRTVAAPSVFIFPPSDEQLKSGTASVVCLLNNFYPREAKVQWKVDNALQSGNSQESVTEQDSKDSTYSLSSTLTLSKADYEKHKVYACEVTHQGLSSPVTKSFNRGEC
heavy 2: QVQLVESGGGVVQPGGSLRLSCAASGFTFSNAWMHWVRQAPGKGLEWVAQIKDKSQNYATYVAESVKGRFTISRADSKNSIYLQMNSLKTEDTAVYYCRYVHYAAGYGVDIWGQGTTVTVSSASTKGPSVFPLAPSSKSTSGGTAALGCLVKDYFPEPVTVSWNSGALTSGVHTFPAVLQSSGLYSLSSVVTVPSSSLGTQTYICNVNHKPSNTKVDKKVEPKSCDKTHTCPPCPAPELRGGPKVFLFPPKPKDTLMISRTPEVTCVVVDVSHEDPEVKFNWYVDGVEVHNAKTKPREEQYASTYRVVSVLTVLHQDWLNGKEYKCKVSNKALPAPIEKTISKAKGQPREPQVYTLPPSRKEMTKNQVSLTCLVKGFYPSDIAVEWESNGQPENNYKTTPPYLDSDGSFFLYSKLTVDKSRWQQGNVFSCSVMHEALHNHYTQKSLSLSP
light 2: DIVMTQSPLSLPVTPGEPASISCRSSQPLVHSNRNTYLHWYQQKPGQAPRLLIYKVSNRFSGVPDRFSGSGSGTDFTLKISRVEAEDVGVYYCGQGTQVPYTFGQGTKLEIKRTVAAPSVFIFPPSDEQLKSGTASVVCLLNNFYPREAKVQWKVDNALQSGNSQESVTEQDSKDSTYSLSSTLTLSKADYEKHKVYACEVTHQGLSSPVTKSFNRGEC
notes: Made by Fab arm exchange of the bivalent anti-CLDN6 antibody CH02 with the bivalent anti-CD3 antibody CD3-1; human IgG1 constant region; One anti-CLDN6 arm and one anti-CD3 arm; also called CLDN6-TRAB; CLDN6-targeted T-cell redirecting bispecific antibody
B2: CH03/CD3 (bispecific antibody, human IgG1, kappa, N297A)
heavy 1: B1 heavy 1 with L9P, D66G, R77S, H84R, Y102F
light 1: B1 light 1 with F7S, T31S, A46G, D85E, F94Y
heavy 2: B1 heavy 2
light 2: B1 light 2
notes: Made by Fab arm exchange of the bivalent anti-CLDN6 antibody CH03 with the bivalent anti-CD3 antibody CD3-1; human IgG1 constant region; One anti-CLDN6 arm and one anti-CD3 arm; also called CLDN6-TRAB; CLDN6-targeted T-cell redirecting bispecific antibody

What was measured:
mouse CLDN3 = target: T1, mouse CLDN3; test: FACS on Ba/F3 transfectant, antibody 20 micro g/ml, FITC anti-human IgG
Description: (§1) To evaluate the binding activity and specificity of the generated CLDN6-TRABs against CLDN6 and other Claudin family antigens, FACS analysis was conducted as follows. Ba/F3 transfectants stably express a kind of protein selected from human CLDN3 (hCLDN3), human CLDN4 (hCLDN4), human CLDN6 (hCLDN6), human CLDN9 (hCLDN9), mouse CLDN3 (mCLDN3), mouse CLDN4 (mCLDN4) and mouse CLDN6 (mCLDN6), were generated using similar method described in WO2008/087978, and named BaF3_hCLDN3, BaF3_hCLDN4, BaF3_hCLDN6, BaF3_hCLDN9, BaF3 mCLDN3, BaF3 mCLDN4, BaF3 mCLDN6, respectively. Each of the CLDN6-TRABs (CH01/CD3, CH02/CD3, CH03/CD3, CH04/CD3) was incubated with the Ba/F3 transfectants at an antibody concentration of 20 micro g/ml in FACS buffer (0.5% BSA containing autoMACS Rinsing Solution, Miltenyl Biotec). Binding activities of each CLDN6-TRAB to the Claudin family proteins (hCLDN3, hCLDN4, hCLDN6, hCLDN9, mCLDN3, mCLDN4, mCLDN6) were examined by incubation of FITC-conjugated goat anti human IgG (BeckmanCoulter), represented as Geo-mean value. Sample processing was conducted on FACSVerse (BD).
(§2) Claudin family proteins have two extracellular domains. The sequence of the first extracellular domain in human CLDN9 is almost the same compared with the first extracellular domain of human CLDN6. For the second extracellular domain of human CLDN9, there are only two amino acids different from the ones at their corresponding positions in human CLDN6 (FIG. 2). The glutamine at position 156 of human Claudin 6 (position 156 in the sequence shown in SEQ ID NO: 44 or 45) was substituted to leucine to make a human CLDN6 mutant comprising the same amino acid as human Claudin 9 at position 156. This human CLDN6 mutant was named as hCLDN6(Q156L) (SEQ ID NO: 53). Ba/F3 transfectant stably express hCLDN6(Q156L) was generated using similar method described in WO2008/087978. The established Ba/F3 transfectant was named BaF3_hCLDN6(Q156L). Binding activity of the generated CLDN6-TRABs against BaF3_hCLDN6(Q156L) was measured using the above mentioned FACS method and the results are shown in FIG. 1 and Table 3.

human CLDN3 = target: T2, human CLDN3; test: as above
Description: as §1, §2

human CLDN9 = target: T3, human CLDN9; test: as above
Description: as §1, §2

human CLDN4 = target: T4, human CLDN4; test: as above
Description: as §1, §2

mouse CLDN4 = target: T5, mouse CLDN4; test: as above
Description: as §1, §2

mouse CLDN6 = target: T6, mouse CLDN6; test: as above
Description: as §1, §2

hCLDN6(Q156L) = target: T7, hCLDN6(Q156L); test: as above
Description: as §1, §2

human CLDN6 [1] = target: T8, human CLDN6; test: as above
Description: as §1, §2

human CLDN6 [2] = target: T8, human CLDN6; test: cell-based or functional assay
human CLDN6 [3] = target: T8, human CLDN6; test: cell-based or functional assay; remark: listed apart in the source

| Molecule | Geo-mean value of FACS (mouse CLDN3) | Geo-mean value of FACS (human CLDN3) | Geo-mean value of FACS (human CLDN9) | Geo-mean value of FACS (human CLDN4) | Geo-mean value of FACS (mouse CLDN4) | Geo-mean value of FACS (mouse CLDN6) | Geo-mean value of FACS (hCLDN6(Q156L)) | Geo-mean value of FACS (human CLDN6 [1]) | EC50 (read off the curve), Jurkat/NFAT-RE luciferase reporter, target cells PA-1 (human CLDN6 [2]) [pM] | EC50 (read off the curve), Jurkat/NFAT-RE luciferase reporter, target cells ABC-1 (human CLDN6 [3]) [pM] |
| --- | --- | --- | --- | --- | --- | --- | --- | --- | --- | --- |
| isotype control (antibody) | 29 | 78 | 96 | 42 | 31 | 43 | 62 | 29 | – | – |
| B1 | 27 | 37 | 84 | 35 | 22 | 1760 | 69 | 4740 | ~30 | ~50 |
| B2 | 26 | 37 | 184 | 35 | 22 | 559 | 98 | 7700 | ~20 | ~40 |
